Data from the supplement of paper PMC6757056.
± gives the standard deviation of the averaged measurements.

B1: library; a variant is named by its letters at N, in order (parent)
chain: GCUGUCACCGAGAAACUGUGAAGUAUAUCUUAAACCUGGGCACUUAAAAGAUAUAUGGAGUUAGUAGUGCAACCUGCUCGGUCUGAUGAGUCCNNNNNNGGACGAAACAGC

Columns and labels:
[1] = variants of: B1; assay: normalized RNA/DNA level without ligand (relative to sTRSVctl = 100) (log10 (% of sTRSVctl)); HEK293T; ligand: cyclic di-GMP (c-di-GMP-II aptamer); higher = less ribozyme self-cleavage, higher mRNA level; conditions: reporter: mCherry (pCS4076), ligand present: no
Summary of the method: (§1)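 HEK293T cells received ligand, where used, 1 h before being transfected with 4 µg per 6-well well of library plasmids encoding reporter-linked ribozyme switches. After 72 h, RNA was extracted with EDTA and sequenced. RNA level was derived from RNA reads per DNA read, normalized to a spiked-in non-cleaving sequence or the top sequences, then scaled and log-transformed. Values were ×100 then log10, the top set was 25 sequences, and the minimum was 100 DNA reads.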

[2] = variants of: B1; assay: normalized RNA/DNA level with ligand (relative to sTRSVctl = 100) (log10 (% of sTRSVctl)); HEK293T; ligand: cyclic di-GMP (c-di-GMP-II aptamer); ligand concentration (+) RNA-Seq: 1 mM; higher = less ribozyme self-cleavage, higher mRNA level; conditions: reporter: mCherry (pCS4076), ligand present: yes
Summary of the method: as §1

Variant	normalized RNA/DNA level without ligand (log10) [1]	normalized RNA/DNA level with ligand (log10) [2]
GCUGUCACCGAGAAACUGUGAAGUAUAUCUUAAACCUGGGCACUUAAAAGAUAUAUGGAGUUAGUAGUGCAACCUGCUCGGUCUGAUGAGUCCAGUACAGGACGAAACAGC	1.51 ± 0.038	1.67 ± 0.059
GCUGUCACCGAGAAACUGUGAAGUAUAUCUUAAACCUGGGCACUUAAAAGAUAUAUGGAGUUAGUAGUGCAACCUGCUCGGUCUGAUGAGUCCAGUACCGGACGAAACAGC	1.66 ± 0.018	1.86 ± 0.15
GCUGUCACCGAGAAACUGUGAAGUAUAUCUUAAACCUGGGCACUUAAAAGAUAUAUGGAGUUAGUAGUGCAACCUGCUCGGUCUGAUGAGUCCAGUACGGGACGAAACAGC	1.58 ± 0.046	1.74 ± 0.065
GCUGUCACCGAGAAACUGUGAAGUAUAUCUUAAACCUGGGCACUUAAAAGAUAUAUGGAGUUAGUAGUGCAACCUGCUCGGUCUGAUGAGUCCAGGUUGGGACGAAACAGC	1.7 ± 0.022	1.77 ± 0.1
GCUGUCACCGAGAAACUGUGAAGUAUAUCUUAAACCUGGGCACUUAAAAGAUAUAUGGAGUUAGUAGUGCAACCUGCUCGGUCUGAUGAGUCCAGGUUUGGACGAAACAGC	1.7 ± 0.04	1.85 ± 0.11
GCUGUCACCGAGAAACUGUGAAGUAUAUCUUAAACCUGGGCACUUAAAAGAUAUAUGGAGUUAGUAGUGCAACCUGCUCGGUCUGAUGAGUCCUGUAACGGACGAAACAGC	1.718 ± 0.0028	1.84 ± 0.12
GCUGUCACCGAGAAACUGUGAAGUAUAUCUUAAACCUGGGCACUUAAAAGAUAUAUGGAGUUAGUAGUGCAACCUGCUCGGUCUGAUGAGUCCUGUAAGGGACGAAACAGC	1.73 ± 0.022	1.84 ± 0.089
GCUGUCACCGAGAAACUGUGAAGUAUAUCUUAAACCUGGGCACUUAAAAGAUAUAUGGAGUUAGUAGUGCAACCUGCUCGGUCUGAUGAGUCCUGUAAUGGACGAAACAGC	1.679 ± 0.01	1.84 ± 0.14
GCUGUCACCGAGAAACUGUGAAGUAUAUCUUAAACCUGGGCACUUAAAAGAUAUAUGGAGUUAGUAGUGCAACCUGCUCGGUCUGAUGAGUCCUGUACGGGACGAAACAGC	1.792 ± 0.0062	1.87 ± 0.032
GCUGUCACCGAGAAACUGUGAAGUAUAUCUUAAACCUGGGCACUUAAAAGAUAUAUGGAGUUAGUAGUGCAACCUGCUCGGUCUGAUGAGUCCUGUACAGGACGAAACAGC	1.778 ± 0.0071	1.88 ± 0.095
GCUGUCACCGAGAAACUGUGAAGUAUAUCUUAAACCUGGGCACUUAAAAGAUAUAUGGAGUUAGUAGUGCAACCUGCUCGGUCUGAUGAGUCCCGUACCGGACGAAACAGC	1.74 ± 0.039	1.89 ± 0.09
GCUGUCACCGAGAAACUGUGAAGUAUAUCUUAAACCUGGGCACUUAAAAGAUAUAUGGAGUUAGUAGUGCAACCUGCUCGGUCUGAUGAGUCCCGUACGGGACGAAACAGC	1.777 ± 0.013	1.857 ± 0.017
GCUGUCACCGAGAAACUGUGAAGUAUAUCUUAAACCUGGGCACUUAAAAGAUAUAUGGAGUUAGUAGUGCAACCUGCUCGGUCUGAUGAGUCCGGUACUGGACGAAACAGC	1.71 ± 0.067	1.82 ± 0.16
GCUGUCACCGAGAAACUGUGAAGUAUAUCUUAAACCUGGGCACUUAAAAGAUAUAUGGAGUUAGUAGUGCAACCUGCUCGGUCUGAUGAGUCCGGUACGGGACGAAACAGC	1.661 ± 0.0037	1.821 ± 0.013
GCUGUCACCGAGAAACUGUGAAGUAUAUCUUAAACCUGGGCACUUAAAAGAUAUAUGGAGUUAGUAGUGCAACCUGCUCGGUCUGAUGAGUCCGGUACCGGACGAAACAGC	1.82 ± 0.038	1.93 ± 0.12
GCUGUCACCGAGAAACUGUGAAGUAUAUCUUAAACCUGGGCACUUAAAAGAUAUAUGGAGUUAGUAGUGCAACCUGCUCGGUCUGAUGAGUCCGGUACAGGACGAAACAGC	1.52 ± 0.034	1.73 ± 0.051
GCUGUCACCGAGAAACUGUGAAGUAUAUCUUAAACCUGGGCACUUAAAAGAUAUAUGGAGUUAGUAGUGCAACCUGCUCGGUCUGAUGAGUCCCGGUUUGGACGAAACAGC	1.6584 ± 0.0015	1.75 ± 0.1
GCUGUCACCGAGAAACUGUGAAGUAUAUCUUAAACCUGGGCACUUAAAAGAUAUAUGGAGUUAGUAGUGCAACCUGCUCGGUCUGAUGAGUCCCGGUUGGGACGAAACAGC	1.68 ± 0.14	1.812 ± 0.013
GCUGUCACCGAGAAACUGUGAAGUAUAUCUUAAACCUGGGCACUUAAAAGAUAUAUGGAGUUAGUAGUGCAACCUGCUCGGUCUGAUGAGUCCCGUAACGGACGAAACAGC	1.557 ± 0.0076	1.72 ± 0.091
GCUGUCACCGAGAAACUGUGAAGUAUAUCUUAAACCUGGGCACUUAAAAGAUAUAUGGAGUUAGUAGUGCAACCUGCUCGGUCUGAUGAGUCCCGUAAGGGACGAAACAGC	1.77 ± 0.056	1.86 ± 0.12
GCUGUCACCGAGAAACUGUGAAGUAUAUCUUAAACCUGGGCACUUAAAAGAUAUAUGGAGUUAGUAGUGCAACCUGCUCGGUCUGAUGAGUCCGGUAAUGGACGAAACAGC	1.61 ± 0.039	1.72 ± 0.037
GCUGUCACCGAGAAACUGUGAAGUAUAUCUUAAACCUGGGCACUUAAAAGAUAUAUGGAGUUAGUAGUGCAACCUGCUCGGUCUGAUGAGUCCGGUAAGGGACGAAACAGC	1.49 ± 0.12	1.65 ± 0.098
GCUGUCACCGAGAAACUGUGAAGUAUAUCUUAAACCUGGGCACUUAAAAGAUAUAUGGAGUUAGUAGUGCAACCUGCUCGGUCUGAUGAGUCCGGUAACGGACGAAACAGC	1.743 ± 0.0073	1.85 ± 0.077
GCUGUCACCGAGAAACUGUGAAGUAUAUCUUAAACCUGGGCACUUAAAAGAUAUAUGGAGUUAGUAGUGCAACCUGCUCGGUCUGAUGAGUCCGGUAAAGGACGAAACAGC	1.441 ± 0.0091	1.62 ± 0.13
GCUGUCACCGAGAAACUGUGAAGUAUAUCUUAAACCUGGGCACUUAAAAGAUAUAUGGAGUUAGUAGUGCAACCUGCUCGGUCUGAUGAGUCCUGGUUGGGACGAAACAGC	1.686 ± 0.011	1.83 ± 0.11
GCUGUCACCGAGAAACUGUGAAGUAUAUCUUAAACCUGGGCACUUAAAAGAUAUAUGGAGUUAGUAGUGCAACCUGCUCGGUCUGAUGAGUCCUGGUUUGGACGAAACAGC	1.761 ± 0.011	1.88 ± 0.12
